From US20190315842A1 (DUKE UNIVERSITY, published 2019)
Numbering of substitutions follows the chain as printed. Where no end group is shown, it is not given here. The star is where a group is joined. Biotin = O=C1N[C@H]2[C@H](CS[C@H]2CCCCC(=O)*)N1

Tests used:
[1] = target: systemic lupus erythematosus autoantigen SSA; assay: AtheNA Multi-Lyte ANA, Ab at 28.3 ug/ml
Sm (sphingomyelin) [2] = target: T1, Sm (sphingomyelin); assay: AtheNA Multi-Lyte ANA, Ab at 28.3 ug/ml
T1 construct: in an ANA panel of nuclear antigens Sm is usually the Smith ribonucleoprotein antigen; Kept, but see recheck

ribonucleoprotein (RNP) [3] = assay: AtheNA Multi-Lyte ANA, Ab at 28.3 ug/ml
[4] = target: systemic lupus erythematosus autoantigen SSA; assay: AtheNA Multi-Lyte ANA, Ab at 3.538 ug/ml
Sm (sphingomyelin) [5] = target: T1, Sm (sphingomyelin); assay: AtheNA Multi-Lyte ANA, Ab at 3.538 ug/ml
ribonucleoprotein (RNP) [6] = assay: AtheNA Multi-Lyte ANA, Ab at 3.538 ug/ml
[7] = target: systemic lupus erythematosus autoantigen SSA; assay: AtheNA Multi-Lyte ANA, Ab at 7.075 ug/ml
Sm (sphingomyelin) [8] = target: T1, Sm (sphingomyelin); assay: AtheNA Multi-Lyte ANA, Ab at 7.075 ug/ml
ribonucleoprotein (RNP) [9] = assay: AtheNA Multi-Lyte ANA, Ab at 7.075 ug/ml
[10] = target: T2, GPPPPIDNGDITSFP(GGGK-biotin); assay: ELISA: biotinylated peptide captured on immobilized Neutravidin, antibody at 0.5 µg/ml, anti-human IgG-HRP/ABTS, OD 405 nm
T2 construct: also called biotinylated 15-mer peptide; biotinylated 19-mer
T2 peptide: GPPPPIDNGDITSFPGGGK(Biotin)

[11] = target: systemic lupus erythematosus autoantigen SSA; assay: AtheNA Multi-Lyte ANA, Ab at 16.7 ug/ml
Sm (sphingomyelin) [12] = target: T1, Sm (sphingomyelin); assay: AtheNA Multi-Lyte ANA, Ab at 16.7 ug/ml
ribonucleoprotein (RNP) [13] = assay: AtheNA Multi-Lyte ANA, Ab at 16.7 ug/ml
[14] = target: systemic lupus erythematosus autoantigen SSA; assay: AtheNA Multi-Lyte ANA, Ab at 8.35 ug/ml
Sm (sphingomyelin) [15] = target: T1, Sm (sphingomyelin); assay: AtheNA Multi-Lyte ANA, Ab at 8.35 ug/ml
ribonucleoprotein (RNP) [16] = assay: AtheNA Multi-Lyte ANA, Ab at 8.35 ug/ml
[17] = target: systemic lupus erythematosus autoantigen SSA; assay: AtheNA Multi-Lyte ANA, Ab at 2.088 ug/ml
Sm (sphingomyelin) [18] = target: T1, Sm (sphingomyelin); assay: AtheNA Multi-Lyte ANA, Ab at 2.088 ug/ml
ribonucleoprotein (RNP) [19] = assay: AtheNA Multi-Lyte ANA, Ab at 2.088 ug/ml
[20] = target: systemic lupus erythematosus autoantigen SSA; assay: AtheNA Multi-Lyte ANA, Ab at 4.175 ug/ml
Sm (sphingomyelin) [21] = target: T1, Sm (sphingomyelin); assay: AtheNA Multi-Lyte ANA, Ab at 4.175 ug/ml
ribonucleoprotein (RNP) [22] = assay: AtheNA Multi-Lyte ANA, Ab at 4.175 ug/ml
[23] = target: T3, 15-mer peptide GPPPPIDNGDITSFP (SEQ ID NO: 114) (human); assay: assay and antigen not given; Example 10, epitope mapping on the 15-mer peptide
T3 construct: Immobilized for SPR; also called parent peptide
T3 peptide: GPPPPIDNGDITSFP

[24] = target: T4, reduced form of Complement Factor H (CFH), treated with TCEP (human, UniProt P08603 19-1231, disulfides reduced with 10 mM TCEP); assay: immunoblot, SDS-PAGE under reducing conditions, antibody at 0.5 µg/ml, anti-human IgG-HRP, chemiluminescence; lane numbers as in Table 10
T4 construct: also called reduced CFH; reduced form of CFH
T4 sequence (P08603 19-1231 limits assumed): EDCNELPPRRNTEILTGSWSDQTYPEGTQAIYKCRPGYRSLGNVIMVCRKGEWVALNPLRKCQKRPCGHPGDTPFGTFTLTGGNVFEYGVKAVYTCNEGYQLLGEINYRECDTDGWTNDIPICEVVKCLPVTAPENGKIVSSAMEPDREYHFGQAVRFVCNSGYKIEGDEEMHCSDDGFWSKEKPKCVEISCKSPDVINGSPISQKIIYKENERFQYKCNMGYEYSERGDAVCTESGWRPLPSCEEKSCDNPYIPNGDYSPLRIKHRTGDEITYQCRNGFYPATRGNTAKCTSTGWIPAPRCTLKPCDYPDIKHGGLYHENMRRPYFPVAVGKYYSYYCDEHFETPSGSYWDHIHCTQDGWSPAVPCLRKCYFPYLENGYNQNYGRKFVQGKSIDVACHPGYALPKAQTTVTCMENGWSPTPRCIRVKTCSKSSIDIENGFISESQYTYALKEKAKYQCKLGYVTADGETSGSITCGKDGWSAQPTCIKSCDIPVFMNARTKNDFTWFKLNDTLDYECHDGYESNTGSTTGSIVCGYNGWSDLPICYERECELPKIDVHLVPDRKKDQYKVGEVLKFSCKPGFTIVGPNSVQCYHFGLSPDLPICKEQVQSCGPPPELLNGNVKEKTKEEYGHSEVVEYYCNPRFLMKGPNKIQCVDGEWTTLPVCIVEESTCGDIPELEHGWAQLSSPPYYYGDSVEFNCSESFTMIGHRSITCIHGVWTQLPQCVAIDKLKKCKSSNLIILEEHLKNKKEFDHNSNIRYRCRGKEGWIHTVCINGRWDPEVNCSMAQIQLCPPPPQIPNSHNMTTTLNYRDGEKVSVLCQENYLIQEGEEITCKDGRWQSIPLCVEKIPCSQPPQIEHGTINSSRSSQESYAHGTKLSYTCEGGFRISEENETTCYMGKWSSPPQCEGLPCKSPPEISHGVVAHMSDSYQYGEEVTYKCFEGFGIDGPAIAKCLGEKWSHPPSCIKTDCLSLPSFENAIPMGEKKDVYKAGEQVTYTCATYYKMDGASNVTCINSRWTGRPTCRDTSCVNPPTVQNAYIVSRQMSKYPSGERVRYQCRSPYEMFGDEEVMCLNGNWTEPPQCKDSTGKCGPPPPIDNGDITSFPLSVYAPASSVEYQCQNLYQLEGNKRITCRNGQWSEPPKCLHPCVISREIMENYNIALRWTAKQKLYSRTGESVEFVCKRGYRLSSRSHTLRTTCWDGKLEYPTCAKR

[25] = target: T5, Complement Factor H (CFH) protein, full-length (human, UniProt P08603 19-1231); assay: immunoblot, SDS-PAGE under non-reducing conditions, antibody at 0.5 µg/ml, anti-human IgG-HRP, chemiluminescence; lane numbers as in Table 10
T5 construct: also called full-length CFH; native CFH
T5 sequence (P08603 19-1231 limits assumed): as above

[26] = target: systemic lupus erythematosus autoantigen SSA; assay: AtheNA Multi-Lyte ANA, Ab at 50 ug/ml;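 further: monoclonal antibodies probed against a nuclear autoantigen panel (SSA, SSB, Sm, RNP, Scl-70, Jo-1, dsDNA, CentB, histones), with anti-HIV 4E10 and palivizumab as control antibodies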
[27] = target: T6, systemic lupus erythematosus autoantigen SSB (UniProt P05455 1-408, limits assumed); assay: AtheNA Multi-Lyte ANA, Ab at 50 ug/ml;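 further: monoclonal antibodies probed against a nuclear autoantigen panel (SSA, SSB, Sm, RNP, Scl-70, Jo-1, dsDNA, CentB, histones), with anti-HIV 4E10 and palivizumab as control antibodies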
T6 sequence (looked up): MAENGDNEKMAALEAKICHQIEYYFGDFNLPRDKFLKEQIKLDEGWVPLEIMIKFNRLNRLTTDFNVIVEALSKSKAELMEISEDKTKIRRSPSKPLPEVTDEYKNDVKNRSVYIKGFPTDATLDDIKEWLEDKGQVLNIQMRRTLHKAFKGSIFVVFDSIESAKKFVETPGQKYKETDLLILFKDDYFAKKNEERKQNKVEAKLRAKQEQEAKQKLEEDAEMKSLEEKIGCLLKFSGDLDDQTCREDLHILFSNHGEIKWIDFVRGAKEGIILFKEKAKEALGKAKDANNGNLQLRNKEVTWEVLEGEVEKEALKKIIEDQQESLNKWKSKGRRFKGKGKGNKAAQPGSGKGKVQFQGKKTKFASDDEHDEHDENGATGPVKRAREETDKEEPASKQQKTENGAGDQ

Sm (sphingomyelin) [28] = target: T1, Sm (sphingomyelin); assay: AtheNA Multi-Lyte ANA, Ab at 50 ug/ml;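 further: monoclonal antibodies probed against a nuclear autoantigen panel (SSA, SSB, Sm, RNP, Scl-70, Jo-1, dsDNA, CentB, histones), with anti-HIV 4E10 and palivizumab as control antibodies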
ribonucleoprotein (RNP) [29] = assay: AtheNA Multi-Lyte ANA, Ab at 50 ug/ml;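 further: monoclonal antibodies probed against a nuclear autoantigen panel (SSA, SSB, Sm, RNP, Scl-70, Jo-1, dsDNA, CentB, histones), with anti-HIV 4E10 and palivizumab as control antibodies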
[30] = target: T7, sclerosis autoantigen (Scl-70) (UniProt P11387 2-765, limits assumed); assay: AtheNA Multi-Lyte ANA, Ab at 50 ug/ml
T7 sequence (looked up): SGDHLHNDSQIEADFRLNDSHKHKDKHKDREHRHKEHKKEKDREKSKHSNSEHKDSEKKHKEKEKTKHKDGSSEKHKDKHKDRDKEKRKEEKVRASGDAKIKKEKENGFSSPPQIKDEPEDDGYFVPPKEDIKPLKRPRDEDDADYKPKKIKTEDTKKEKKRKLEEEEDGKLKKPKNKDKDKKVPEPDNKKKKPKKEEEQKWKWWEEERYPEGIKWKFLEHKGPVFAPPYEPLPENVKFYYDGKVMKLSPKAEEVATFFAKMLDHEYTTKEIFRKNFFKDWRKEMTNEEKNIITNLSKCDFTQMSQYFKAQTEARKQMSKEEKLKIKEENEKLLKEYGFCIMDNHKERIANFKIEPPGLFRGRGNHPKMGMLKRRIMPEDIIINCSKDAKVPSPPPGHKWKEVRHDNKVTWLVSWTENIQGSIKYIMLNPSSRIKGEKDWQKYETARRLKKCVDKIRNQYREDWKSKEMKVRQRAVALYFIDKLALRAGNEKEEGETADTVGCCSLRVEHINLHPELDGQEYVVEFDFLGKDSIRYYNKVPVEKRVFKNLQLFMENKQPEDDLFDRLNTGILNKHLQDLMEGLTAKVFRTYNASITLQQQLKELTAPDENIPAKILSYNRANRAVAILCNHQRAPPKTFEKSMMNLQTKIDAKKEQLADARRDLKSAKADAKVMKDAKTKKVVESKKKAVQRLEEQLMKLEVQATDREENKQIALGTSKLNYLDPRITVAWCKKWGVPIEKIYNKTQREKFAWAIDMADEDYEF

[31] = target: T8, histidine-tRNA ligase (Jo-1) (UniProt P12081 2-509); assay: AtheNA Multi-Lyte ANA, Ab at 50 ug/ml
T8 sequence (looked up): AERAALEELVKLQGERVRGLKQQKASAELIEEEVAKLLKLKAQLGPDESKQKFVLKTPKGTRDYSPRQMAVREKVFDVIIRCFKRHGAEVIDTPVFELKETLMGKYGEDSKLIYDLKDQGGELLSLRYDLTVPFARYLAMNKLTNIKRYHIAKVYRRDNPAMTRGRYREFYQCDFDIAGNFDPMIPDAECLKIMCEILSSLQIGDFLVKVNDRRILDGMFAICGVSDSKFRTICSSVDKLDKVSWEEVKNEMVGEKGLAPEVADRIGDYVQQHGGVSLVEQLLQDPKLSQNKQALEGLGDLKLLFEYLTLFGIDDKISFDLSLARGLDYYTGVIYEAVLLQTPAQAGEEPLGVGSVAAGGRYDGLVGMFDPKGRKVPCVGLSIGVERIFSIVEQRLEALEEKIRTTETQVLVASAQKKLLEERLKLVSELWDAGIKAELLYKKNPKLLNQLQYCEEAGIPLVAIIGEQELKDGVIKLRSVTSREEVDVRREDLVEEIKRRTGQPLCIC

[32] = target: systemic lupus erythematosus autoantigen SSA; assay: AtheNA Multi-Lyte ANA, Ab at 12.5 ug/ml;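 further: monoclonal antibodies screened for binding to a panel of nuclear autoantigens (SSA, SSB, Sm, RNP, Scl-70, Jo-1, dsDNA, CentB, histones), with anti-HIV and anti-RSV antibodies as controls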
[33] = target: T6, systemic lupus erythematosus …; assay: AtheNA Multi-Lyte ANA, Ab at 12.5 ug/ml;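 further: monoclonal antibodies screened for binding to a panel of nuclear autoantigens (SSA, SSB, Sm, RNP, Scl-70, Jo-1, dsDNA, CentB, histones), with anti-HIV and anti-RSV antibodies as controls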
Sm (sphingomyelin) [34] = target: T1, Sm (sphingomyelin); assay: AtheNA Multi-Lyte ANA, Ab at 12.5 ug/ml;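 further: monoclonal antibodies screened for binding to a panel of nuclear autoantigens (SSA, SSB, Sm, RNP, Scl-70, Jo-1, dsDNA, CentB, histones), with anti-HIV and anti-RSV antibodies as controls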
ribonucleoprotein (RNP) [35] = assay: AtheNA Multi-Lyte ANA, Ab at 12.5 ug/ml;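 further: monoclonal antibodies screened for binding to a panel of nuclear autoantigens (SSA, SSB, Sm, RNP, Scl-70, Jo-1, dsDNA, CentB, histones), with anti-HIV and anti-RSV antibodies as controls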
[36] = target: T7, sclerosis autoantigen (Scl-70); assay: AtheNA Multi-Lyte ANA, Ab at 12.5 ug/ml
[37] = target: T8, histidine-tRNA ligase (Jo-1); assay: AtheNA Multi-Lyte ANA, Ab at 12.5 ug/ml
[38] = target: systemic lupus erythematosus autoantigen SSA; assay: AtheNA Multi-Lyte ANA, Ab at 6.25 ug/ml;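 further: monoclonal antibodies screened for reactivity against a panel of nuclear autoantigens, with an anti-HIV and an anti-RSV monoclonal antibody serving as controls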
[39] = target: T6, systemic lupus erythematosus …; assay: AtheNA Multi-Lyte ANA, Ab at 6.25 ug/ml;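 further: monoclonal antibodies screened for reactivity against a panel of nuclear autoantigens, with an anti-HIV and an anti-RSV monoclonal antibody serving as controls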
Sm (sphingomyelin) [40] = target: T1, Sm (sphingomyelin); assay: AtheNA Multi-Lyte ANA, Ab at 6.25 ug/ml;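 further: monoclonal antibodies screened for reactivity against a panel of nuclear autoantigens, with an anti-HIV and an anti-RSV monoclonal antibody serving as controls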
ribonucleoprotein (RNP) [41] = assay: AtheNA Multi-Lyte ANA, Ab at 6.25 ug/ml;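 further: monoclonal antibodies screened for reactivity against a panel of nuclear autoantigens, with an anti-HIV and an anti-RSV monoclonal antibody serving as controls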
[42] = target: T7, sclerosis autoantigen (Scl-70); assay: AtheNA Multi-Lyte ANA, Ab at 6.25 ug/ml
[43] = target: T8, histidine-tRNA ligase (Jo-1); assay: AtheNA Multi-Lyte ANA, Ab at 6.25 ug/ml

B1: Ab7970 (antibody, IgG1, V domains shown)
VH: LVESGGGVVQPGRSLRLSCAASGLTFSFYNFHWVRQTPGKGLEWVAGISYDATRTNYAGSVTGRFTISRDNSKKMLYLQMSSLGPQDTAVYHCARDRSDGQLHKVAFDSWGQGALVTVSS
VL: MTQSPDSLTLSLGERATINCRSSRTVLYRSNNKNYLAWYQHKPGQPPKLLMSWASTRETGVPDRFSGSGSGTHFTLTITSLQPEDVAVYYCQQYYSPPWTFGQGTKVEIR
notes: IgG1 heavy chain backbone and kappa constant; also called clone 18; pH007970/pK005991_6004
In the case of B1, the AtheNA signal [1] is reported as 165, the AtheNA signal (Sm (sphingomyelin) [2]) is reported as 22 and the AtheNA signal (ribonucleoprotein (RNP) [3]) is reported as 56. The AtheNA signal [4] was 84, the AtheNA signal (Sm (sphingomyelin) [5]) was 10 and the AtheNA signal (ribonucleoprotein (RNP) [6]) was 34. The AtheNA signal [7] was 120, the AtheNA signal (Sm (sphingomyelin) [8]) was 12 and the AtheNA signal (ribonucleoprotein (RNP) [9]) was 44. B1: binds [10].

B2: Ab7979 (antibody, IgG1, V domains shown)
VH: LVESGGGVVQPGKSLRLSCVASGFTFSTYGMHWVRQAPGKGLEWVAVMSFDGKTKYYADSVKGRFTISRDNPKNTLYLQMNSLRSEDTAVYYCAKGGAAAAVFDSWGQGILLTVSS
VL: MTQSPNSLAVSLGGRATINCKTSQSILYRSNNKNYLAWYQHKPGQPPKLLIYWASTRESRVPDRFSGSGSRTDFTLTISGLQAEDVAVYYCQQYYNPPWTFGQGTKVEIK
notes: Recombinant human antibody with IgG1 heavy chain backbone and kappa light chain constant; they begin at LVESGGG and MTQSP; also called Ab7979/239i; mAb 7979
B2 gave an AtheNA signal [11] of 144, an AtheNA signal (Sm (sphingomyelin) [12]) of 92 and an AtheNA signal (ribonucleoprotein (RNP) [13]) of 40. For the same binder, the AtheNA signal [14] was 146, the AtheNA signal (Sm (sphingomyelin) [15]) was 77 and the AtheNA signal (ribonucleoprotein (RNP) [16]) was 38. For the same binder, the AtheNA signal [17] was 119, the AtheNA signal (Sm (sphingomyelin) [18]) was 45 and the AtheNA signal (ribonucleoprotein (RNP) [19]) was 29. It also gave an AtheNA signal [20] of 140, an AtheNA signal (Sm (sphingomyelin) [21]) of 63 and an AtheNA signal (ribonucleoprotein (RNP) [22]) of 36. For the same binder, the EC50 [23] was 0.0122 µg/mL, the binding result [10] was “binds” and the binding result [24] was “binds”. B2: binds [25].

B3: Ab7960/293i (antibody, IgG1, V domains shown)
VH: B2 VH with T25S, Q108P
VL: B2 VL with T22A, P43A, R60G, D63E, S79N
notes: Recombinant human antibody with IgG1 heavy chain backbone and kappa light chain constant; they begin at LVESGGG and MTQSP; also called mAb 7960; mAb7960
Binder B3 has an AtheNA signal [26] of 6, an AtheNA signal [27] of 8 and an AtheNA signal (Sm (sphingomyelin) [28]) of 2. For the same binder, the AtheNA signal (ribonucleoprotein (RNP) [29]) was 4, the AtheNA signal [30] was 3 and the AtheNA signal [31] was 5. The AtheNA signal [32] was 4, the AtheNA signal [33] was 8 and the AtheNA signal (Sm (sphingomyelin) [34]) was 4. The AtheNA signal (ribonucleoprotein (RNP) [35]) was 3, the AtheNA signal [36] was 3 and the AtheNA signal [37] was 4. The AtheNA signal [38] was 2, the AtheNA signal [39] was 7 and the AtheNA signal (Sm (sphingomyelin) [40]) was 2. It also gave an AtheNA signal (ribonucleoprotein (RNP) [41]) of 2, an AtheNA signal [42] of 1 and an AtheNA signal [43] of 2. The EC50 [23] was 0.00782 µg/mL, the binding result [10] was “binds” and the binding result [24] was “binds”. B3: binds [25].
